From paper PMC2920127 (Nature structural & molecular biology, 2010)
Values belong to the binder of their own block, whether it stands above or below them.

Target: recombinant full-length His-tagged human PABPC1 (human, UniProt P11940 1-636)
Test: pull-down

Sequence of recombinant full-length His-tagged human PABPC1 (P11940 whole entry): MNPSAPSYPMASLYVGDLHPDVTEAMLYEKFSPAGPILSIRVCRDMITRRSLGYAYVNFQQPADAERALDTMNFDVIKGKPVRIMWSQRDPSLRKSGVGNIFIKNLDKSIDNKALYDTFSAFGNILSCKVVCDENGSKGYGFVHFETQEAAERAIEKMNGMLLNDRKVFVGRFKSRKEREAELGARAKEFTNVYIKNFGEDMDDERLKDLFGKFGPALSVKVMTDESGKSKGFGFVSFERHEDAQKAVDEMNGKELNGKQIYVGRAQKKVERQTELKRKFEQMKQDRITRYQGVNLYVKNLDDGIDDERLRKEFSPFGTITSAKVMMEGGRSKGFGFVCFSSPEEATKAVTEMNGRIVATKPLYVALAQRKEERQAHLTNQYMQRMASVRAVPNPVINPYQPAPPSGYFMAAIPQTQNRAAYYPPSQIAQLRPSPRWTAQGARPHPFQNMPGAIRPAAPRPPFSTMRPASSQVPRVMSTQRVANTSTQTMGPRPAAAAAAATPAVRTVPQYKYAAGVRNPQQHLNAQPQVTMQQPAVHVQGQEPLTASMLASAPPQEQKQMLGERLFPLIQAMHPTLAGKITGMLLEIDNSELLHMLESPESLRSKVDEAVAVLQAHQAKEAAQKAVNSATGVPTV

- binding result: binds
B1: GST-fused TNRC6C fragment 1364-1601 (domain or fragment, human, UniProt Q9HCJ0-1 1364-1601, looked up)
chain: PHSWSRAKSDSDKISNGSSINWPPEFHPGVPWKGLQNIDPENDPDVTPGSVPTGPTINTTIQDVNRYLLKSGGKLSDIKSTWSSGPTSHTQASLSHELWKVPRNSTAPTRPPPGLTNPKPSSTWGASPLGWTSSYSSGSAWSTDTSGRTSSWLVLRNLTPQIDGSTLRTLCLQHGPLITFHLNLTQGNAVVRYSSKEEAAKAQKSLHMCVLGNTTILAEFAGEEEVNRFLAQGQALPP

- binding result: binds
B2: GST-fused TNRC6C fragment 1242-1601 (domain or fragment, human, UniProt Q9HCJ0-1 1242-1601, looked up)
chain: PQTPGLPDLQTKEQQSSPNTFAPYPLAGLNPNMNVNSMDMTGGLSVKDPSQSQSRLPQWTHPNSMDNLPSAASPLEQNPSKHGAIPGGLSIGPPGKSSIDDSYGRYDLIQNSESPASPPVAVPHSWSRAKSDSDKISNGSSINWPPEFHPGVPWKGLQNIDPENDPDVTPGSVPTGPTINTTIQDVNRYLLKSGGKLSDIKSTWSSGPTSHTQASLSHELWKVPRNSTAPTRPPPGLTNPKPSSTWGASPLGWTSSYSSGSAWSTDTSGRTSSWLVLRNLTPQIDGSTLRTLCLQHGPLITFHLNLTQGNAVVRYSSKEEAAKAQKSLHMCVLGNTTILAEFAGEEEVNRFLAQGQALPP
